Test results taken from patent US11433139B2, “Peptide vaccines against interleukin-31” (Zoetis Services LLC, priority 2018, dated 2022).
Entries after “also recorded” stand apart in the source; their conditions may differ. Where no end group is shown, it is not given here. The star is where a group is joined. Biotin = O=C1N[C@H]2[C@H](CS[C@H]2CCCCC(=O)*)N1

B1: ZIL1: fully canine anti IL-31 antibody, VH SEQ ID NO: 75, VL SEQ ID NO: 77 (antibody, listed as Canis familiaris, V domains shown)
VH: EVQLVESGGDLVKPGGSLRLSCVASGFTFSSYGMSWVRQAPGKGLQWVAHINSGGSSTYYADAVKGRFTISRDNAKNTLYLQMNSLRAEDTAVYYCVEVYTTLAAFWTDNFDYWGQGTLVTVSS
VL: QSVLTQPTSVSGSLGQRVTISCSGSTNNIGILAATWYQQLPGKAPKVLVYSDGNRPSGVPDRFSGSKSGNSATLTITGLQAEDEADYYCQSFDTTLDAYVFGSGTQLTVL
B2: 11E12: mouse-derived anti IL-31 antibody previously described in U.S. Pat. No. 8,790,651; for comparison (antibody, V domains shown)
VH: QVQLQQSGAELVKPGASVKLSCKASGYTFKYYDINWVRQRPEQGLEWIGWIFPGDGGTKYNETFKGKATLTTDKSSSTAYMQLSRLTSEDSAVYFCARGGTSVIRDAMDYWGQGTSVTVSS
VL: DIVLTQSPASLAVSLGQRATISCRASESVDNYGISFMHWYQQKPGQPPKLLIYRASNLESGIPARFSGSGSRTDFTLTINPVETDDVATYYCQQSNKDPLTFGAGTKLELK

Key:
[1] = tested on: mouse anti equine IL-31 serum; test: Bio-layer interferometry binding of mouse serum to immobilized equine IL-31 mimotopes
Description: Mice were immunized with full length equine IL-31 (SEQ ID NO: 165; Equine_IL-31), the corresponding nucleotide sequence for which is (SEQ ID NO: 166; […]) conjugated to CRM-197 like the method described in section 1.6 of this application. Biotin conjugated peptides representing three epitope regions described herein were designed for use with a bio-layer interferometry binding assay (Octet, ForteBio). Description of these peptides are described in FIG. 21A. Each peptide contains an N terminal biotin with a three-amino acid spacer sequence (GSG) annotated with bold underlined text in the figure. The 15H05 mimotope includes two terminal cysteine residues (also highlighted in bold and underlined) to facilitate cyclization by a disulphide bond. […] Control mouse serum was from a mouse vaccinated with an unrelated protein. The response, described here as the amplitude of the signal following 120 seconds of antiserum association, is represented on the y axis of the figure. […] In addition, the ability of these IL-31 mimotopes to be recognized by those immune responses can be assessed through binding. […] Like presentation of mimotopes described herein which elicit immune responses to full length protein, this experiment describes a reciprocal validation of these epitopes where the immune response is validated from the protein against the mimotope.

[2] = tested on: feline IL-31 15H05 mutant; test: Indirect ELISA, binding to feline IL-31 15H05 mutant; settings: compared with wildtype
feline IL-31 15H05 mutant, sequence (as listed by the source, change not shown): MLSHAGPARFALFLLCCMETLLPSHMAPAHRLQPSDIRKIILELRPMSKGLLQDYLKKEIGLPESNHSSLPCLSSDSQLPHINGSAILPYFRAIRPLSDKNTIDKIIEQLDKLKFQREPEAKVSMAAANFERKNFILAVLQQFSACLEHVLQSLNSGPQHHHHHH
Procedure: (§1) Mice and dogs were immunized with recombinant canine IL-31 (SEQ ID No. 155) for the purpose of identifying antibodies. Serum antibody titers from immunized animals were determined using an enzyme linked immunosorbent assay (ELISA). Canine or feline IL-31 (50 ng/well) was immobilized to polystyrene microplates and used as a capture antigen. Serum from immunized animals was diluted in phosphate buffered saline with 0.05% tween-20 (PBST). The presence of anti-IL-31 antibodies was detected with an appropriate secondary HRP labeled antibody. Following addition of a chromogenic substrate (SureBlue Reserve TMB 1-Component Microwell Peroxidase Substrate, KPL, Inc., Gaithersburg, Md.) and a ten minute incubation at room temperature (RT) the reaction was stopped with the addition of […] of 0.1 N HCl. The absorbance of each well was determined at an optical density (OD) of 450 nm. Antibodies were selected for their ability to bind canine and feline IL-31 using an ELISA. In some cases, further characterization was performed at the time of selection using an ELISA with a mutant form of the feline IL-31 protein as a capture antigen. Cells producing antibodies with desired binding and inhibitory properties were chosen for sequence analysis of RNA transcripts representing the variable heavy (VH) and variable light (VL) IgG chains.
(§2) For the indirect ELISA method, antibody binding to wildtype and feline IL-31 15H05 mutant proteins was assessed. […] In comparison, the 11E12 antibody bound to the wild-type feline IL-31 and its binding was not impacted by the mutations in the 15H05 epitope region as evidenced by the data in FIG. 4. To confirm binding, biacore analysis was performed using canine, feline, equine, human, feline 15H05 mutant, and feline 11E12 mutant IL-31 proteins as surfaces and a single test concentration of antibody. Similar to ELISA observations, all antibodies tested bound to wildtype feline IL-31. In agreement with the data described above in this section, mouse antibodies 11 E12 and 15H05 both bound to canine and feline IL-31 surfaces. […] From this group of nine fully canine antibodies, only ZIL1 and ZIL9 cross-reacted with equine IL-31. Of note, antibody 15H05 was the only one of all assayed herein that bound to canine, feline, and equine IL-31 indicating some level of epitope conservation across the three species. In contrast, none of the antibodies described herein bound to human IL-31. Additional biacore surfaces were used to verify ELISA observations showing differential binding of antibodies to wildtype feline IL-31 and two proteins with mutations in the 15H05 (15H05 mutant) or 11 E12 (11E12 mutant) epitopes. […] Differing results can be attributed to differences in the two assay methodologies.
(§3) To determine the impact of mAbs 11E12 and 15H05 ability to bind these mutant forms of feline IL-31, an indirect ELISA was run using the mutants directly coated on to an immunoassay plate. […] The minor attenuation of mAb 15H05s binding to the 11E12 mutant is likely due to translational effects of the mutations from movement of the two front helices effecting the 15H05 binding site. The mutations designed to affect mAb 15H05s binding (mutant 15H05) show a complete loss of mAb 1505s ability to bind this IL-31 mutant by ELISA. Unlike the 11E12 mutant, the changes in the random coil recognized by mAb 15H05 (mutant 15H05) had no impact on mAb 11E12 binding further supporting the distinction between the two epitopes (FIG. 6C).

wildtype feline IL-31 [3] = test: Indirect ELISA, binding to wildtype feline IL-31
wildtype feline IL-31, sequence (as listed by the source): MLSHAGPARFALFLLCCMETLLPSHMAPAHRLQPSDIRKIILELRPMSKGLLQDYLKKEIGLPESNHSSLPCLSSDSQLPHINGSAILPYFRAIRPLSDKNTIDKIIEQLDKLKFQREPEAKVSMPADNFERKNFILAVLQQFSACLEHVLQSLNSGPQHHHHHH
Procedure: as §1, §2, §3

[4] = tested on: feline 15H05 mutant IL-31; test: Biacore binding, single test concentration of antibody, feline 15H05 mutant IL-31 surface
Procedure: (§4) For the indirect ELISA, binding (ELISA OD) to wildtype feline IL-31 and a feline IL-31 15H05 mutant which had mutations in the monoclonal antibody 15H05 epitope region was assessed. To confirm binding, biacore analysis was performed using canine, feline, equine, human, the feline 15H05 mutant, and feline 11E12 mutant IL-31 proteins as surfaces and a single test concentration of antibody. The feline IL-31 11E12 mutant had mutations in the monoclonal antibody 11E12 epitope region.
as §2

equine IL-31 = test: Biacore binding, single test concentration of antibody, equine IL-31 surface
equine IL-31, sequence (as listed by the source): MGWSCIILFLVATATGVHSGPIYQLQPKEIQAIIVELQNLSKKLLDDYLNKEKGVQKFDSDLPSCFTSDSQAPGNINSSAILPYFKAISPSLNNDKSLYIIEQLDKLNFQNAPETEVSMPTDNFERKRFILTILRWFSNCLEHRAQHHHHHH
Procedure: as §4, §2

[5] = tested on: feline 11E12 mutant IL-31; test: Biacore binding, single test concentration of antibody, feline 11E12 mutant IL-31 surface
feline 11E12 mutant IL-31, sequence (as listed by the source, change not shown): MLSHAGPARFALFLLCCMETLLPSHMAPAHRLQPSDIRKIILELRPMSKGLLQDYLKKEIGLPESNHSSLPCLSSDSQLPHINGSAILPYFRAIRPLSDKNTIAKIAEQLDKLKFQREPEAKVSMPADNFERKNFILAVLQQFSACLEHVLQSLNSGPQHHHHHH
Procedure: as §4, §2

canine IL-31 [6] = test: Biacore binding, single test concentration of antibody, canine IL-31 surface
canine IL-31, sequence (as listed by the source): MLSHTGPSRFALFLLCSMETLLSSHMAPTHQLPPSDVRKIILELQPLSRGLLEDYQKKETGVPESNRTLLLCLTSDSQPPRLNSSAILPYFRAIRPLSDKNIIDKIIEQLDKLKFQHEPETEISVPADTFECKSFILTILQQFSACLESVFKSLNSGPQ
Procedure: as §4, §2

feline IL-31 [7] = test: Affinity of anti-IL-31 antibodies by surface plasmon resonance (Biacore), feline IL-31 surface; assay type: binding; settings: IL-31 conjugated to the surface (FIG. 2)
In short: (§5)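 IL-31 amine-coupled (NHS/EDC) at 5 μg/mL directly onto the SPR chip, quenched with ethanolamine; candidate mAbs flowed over as analyte. KD from 1:1 model fits; values below 1×10^−11 M are under the instrument's lower quantitation limit.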

feline IL-31 [8] = test: Inhibition of feline IL-31 induced pSTAT3 signaling in feline FCWF4 macrophage-like cells; assay type: cell-based; settings: 0.2 μg/mL feline IL-31, pSTAT3, FCWF4 cells (FIG. 3)
Procedure: (§6) To identify candidates with inhibitory activity, antibodies were assessed for their ability to affect IL-31-mediated STAT3 phosphorylation in either a canine or feline cell-based assay. STAT3 phosphorylation was determined in canine DH-82 (ATCC® CRL-10389™) or feline FCWF4 macrophage-like cells (ATCC CRL-2787). DH82 and FCWF4 cells were primed with canine interferon gamma (R&D Systems, Minneapolis, Minn.) at 10 ng/mL for 24 hours or feline interferon gamma (R&D Systems, Minneapolis, Minn.) at 125 ng/mL for 96 hours, respectively, to increase receptor expression. Both cell types were serum starved for 2 hours prior to IL-31 and mAb treatment. Using two independent methods, all candidate mAbs were evaluated for their ability to inhibit either 1 μg/mL canine or 0.2 μg/mL feline IL-31 induced STAT3 phosphorylation. […] To ensure complex formation, a one hour co-incubation of mAb and IL-31 cytokine prior to cell stimulation was completed. IL-31 cell stimulation was carried out for five minutes. STAT3 phosphorylation was measured using AlphaLISA SureFire ULTRA™ technology (Perkin Elmer, Waltham, Mass.). In the case where antibody concentration and purity are unknown, hybridoma supernatants were qualitatively measured for their ability to inhibit STAT3 phosphorylation following a 1 hour co-incubation with […] IL-31. The potency of individual monoclonal antibodies defined by their ability to inhibit IL-31 mediated STAT3 phosphorylation in these assays was considered the key selection criteria for further advancement of select antibodies. The term potency refers to the IC50 value calculated from these assays and is the concentration of the antibody where signaling induced by IL-31 is reduced to one half its maximal value.

feline IL-31 [9] = test: Inhibition of feline IL-31 induced pSTAT3 signaling in canine DH-82 cells; assay type: cell-based; settings: feline IL-31, pSTAT3, canine DH82 cells (FIG. 3)
Procedure: as §6
Target sequence in this assay (as listed by the source): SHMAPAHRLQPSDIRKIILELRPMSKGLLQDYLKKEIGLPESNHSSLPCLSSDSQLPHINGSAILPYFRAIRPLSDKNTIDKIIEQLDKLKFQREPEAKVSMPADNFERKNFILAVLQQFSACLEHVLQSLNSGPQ

canine IL-31 [10] = test: Affinity of anti-IL-31 antibodies by surface plasmon resonance (Biacore), canine IL-31 surface; assay type: binding; settings: IL-31 conjugated to the surface (FIG. 2)
In short: as §5

canine IL-31 [11] = test: Competition binding assessment using Biacore, canine IL-31 surface; settings: sequential addition of 15H05 and 11E12, Biacore
Procedure: (§7) To further characterize the IL-31 epitopes bound by mAbs 15H05 and 11 E12, blocking experiments were performed using biacore where the surface containing the IL-31 protein was generated followed by sequential addition of antibodies. FIGS. 7A and 7B show the relative binding of each antibody to IL-31 following capture of 11E12 or 15H05. The columns labeled HBS-EP (assay buffer) indicate the maximum signal obtained from each antibody binding to the IL-31 surface alone without competition. […] The sensograms related to FIG. 7A show the disassociation kinetics of both antibodies are very slow on this newly formed biacore surface therefore no additional occupation of binding sites can occur with addition of the same antibody (data not shown).

[12] = tested on: feline IL-31 11E12 mutant; test: Indirect ELISA, binding to feline IL-31 11E12 mutant; settings: compared with wildtype
Description: as §3

wildtype feline IL-31 [13] = test: Biacore binding, single test concentration of antibody, feline IL-31 surface
Procedure: as §4
For the indirect ELISA method, antibody binding to wildtype and feline IL-31 15H05 mutant proteins was assessed. […] In comparison, the 11E12 antibody bound to the wild-type feline IL-31 and its binding was not impacted by the mutations in the 15H05 epitope region as evidenced by the data in FIG. 4. To confirm binding, biacore analysis was performed using canine, feline, equine, human, feline 15H05 mutant, and feline 11E12 mutant IL-31 proteins as surfaces and a single test concentration of antibody. Similar to ELISA observations, all antibodies tested bound to wildtype feline IL-31. In agreement with the data described above in this section, mouse antibodies 11 E12 and 15H05 both bound to canine and feline IL-31 surfaces. […] From this group of nine fully canine antibodies, only ZIL1 and ZIL9 cross-reacted with equine IL-31. […]

feline IL-31 [14] = test: Competition binding assessment using Biacore, feline IL-31 surface; settings: sequential addition of 15H05 and 11E12, Biacore
Procedure: as §7
Binding of additional antibody in the presence of the same antibody is a result of the increased off rate due to the poorer quality of the surface used. Increased off rates can be seen and compared to the KD values from newly formed feline IL-31 surfaces in FIG. 2.

Row | Molecule | binding of mouse anti equine IL-31 serum to mimotope ([1]; biotin peptide on streptavidin pins, 120 seconds association) | binding of control mouse serum to mimotope ([1]; serum of a mouse vaccinated with an unrelated protein) | binding to feline IL-31 15H05 mutant (ELISA) [2] | binding to wildtype feline IL-31 (ELISA) (wildtype feline IL-31 [3]) | binding to feline 15H05 mutant IL-31 (Biacore) [4] | binding to equine IL-31 (Biacore) (equine IL-31) | binding to feline 11E12 mutant IL-31 (Biacore) [5] | binding to canine IL-31 (Biacore) (canine IL-31 [6]) | affinity (KD) to feline IL-31 (feline IL-31 [7]) | potency (IC50) against feline IL-31 in feline FCWF4 cells (feline IL-31 [8]) | potency (IC50) against feline IL-31 in canine DH82 cells (feline IL-31 [9]) | affinity (KD) to canine IL-31 (canine IL-31 [10]) | competition binding on canine IL-31 (canine IL-31 [11]) | binding to feline IL-31 11E12 mutant (ELISA) [12] | binding to wildtype feline IL-31 (Biacore) (wildtype feline IL-31 [13]) | competition binding on feline IL-31 (feline IL-31 [14])
1 | A helix: biotin GSG equine IL-31 mimotope N-GPIYQLQPKEIQAIIVELQNLSKK-C (Biotin-GSGGPIYQLQPKEIQAIIVELQNLSKK) | recognized as relevant immunogens | some dilution dependent signal | – | – | – | – | – | – | – | – | – | – | – | – | – | –
2 | B1 | – | – | binding was impacted; also recorded: decreased | capable of binding; also recorded: retained binding | decreased | cross-reacted | partially effected | – | – | – | – | – | – | – | – | –
3 | B2 | – | – | not impacted; also recorded: no impact | bound; also recorded: capable of binding | bound | – | did not bind | bound | high affinity | comparable | comparable | high affinity | capable of binding to canine IL-31 in the presence of one another | highly attenuated | bound | no overlap in the epitope recognized
